Source: paper PMC4895972, “Calcium binding protects E-cadherin from cleavage by Helicobacter pylori HtrA” (Gut Pathogens, 2016)

Biological target: the molecule itself
Experiment: non-reducing SDS-PAGE; 3 µg HpHtrA preincubated in 50 mM HEPES pH 7.5 without or with increasing concentrations of CaCl2; sample buffer without β-mercaptoethanol; Coomassie-stained

B1: recombinant HtrA (high temperature requirement A) from H. pylori strain 26695, wildtype (enzyme)
chain: GNIQIQSMPKVKERVSVPSKDDTIYSYHDSIKDSIKAVVNISTEKKIKNNFIGGGVFNDPFFQQFFGDLGGMIPKERMERALGSGVIISKDGYIVTNNHVIDGADKIKVTIPGSNKEYSATLVGTDSESDLAVIRITKDNLPTIKFSDSNDISVGDLVFAIGNPFGVGESVTQGIVSALNKSGIGINSYENFIQTDASINPGNSGGALIDSRGGLVGINTAIISKTGGNHGIGFAIPSNMVKDTVTQLIKTGKIERGYLGVGLQDLSGDLQNSYDNKEGAVVISVEKDSPAKKAGILVWDLITEVNGKKVKNTNELRNLIGSMLPNQRVTLKVIRDKKERAFTLTLAERKNPNKKETISAQNGAQGQLNGLQVEDLTQETKRSMRLSDDVQGVLVSQVNENSPAEQAGFRQGNIITKIEEVEVKSVADFNHALEKYKGKPKRFLVLDLNQGYRIILVK
notes: also called HpHtrA; H. pylori HtrA; source: E. coli BL21, purified (GSH-Sepharose, GST-tag removed with PreScission protease, dialyzed against 50 mM Tris pH 7.5)
binding result: binds
